Results from patent US20240218062A1 (DEVELOPMENT CENTER FOR BIOTECHNOLOGY, published 2024).

Assays:
[1] = target: NTSR1 linear L2-biotin protein (human) (UniProt P30989); test: ELISA titration on NTSR1, anti-human IgG-HRP, OD450 minus OD650
NTSR1 protein = NTSR1 protein (UniProt P30989 1-418, limits assumed); test: SPR, Biacore T200, NTSR1 protein on CM5 chip, multi-cycle kinetics, 25 C
Description: To know the binding kinetics differences among individual anti-NTSR1 antibodies, surface plasmon resonance (SPR) measurement with BIACORE™ T200 (CYTIVA® Inc.) was used as previously described (Karlsson & Falt, (1997) J. Immunol Methods 200:121-133). Carboxymethylated dextran biosensor chips (CM5, CYTIVA® Inc.) were activated with N-ethyl-N′-(3-dimethylaminopropyl)-carbodiimide hydrochloride (EDC) and N-hydroxysuccinimide (NHS) according to the supplier's instructions. NTSR1 protein was diluted with 10 mM sodium acetate, pH 4.0, into 5 μg/ml before injection at a flow rate of 10 μL/minute to achieve approximately 1500 response units (RU) of coupled protein followed by the injection of 1 M ethanolamine to block unreacted groups. For kinetics measurements, two-fold serial dilutions of anti-NTSR1 mAb (0.3125 nM to 40 nM) were injected in HBS-EP+BIACORET™ running buffer provided by the manufacturer (CYTIVA® Inc.) at 25° C. at a flow rate of 30 μL/min, and binding responses on the NTSR1 protein were corrected by subtraction of responses on a blank flow cell. Association rates (kₒₙ or Kₐ) and dissociation rates (koff or Kd) were calculated using a simple one-to-one Langmuir binding model with separate fittings of kₒₙ and koff. (CYTIVA® BIACORET™ Insight Evaluation Software).

NTSR1 on FaDu cells [2] = target: T1, NTSR1 on FaDu cells (human, UniProt P30989 1-418); test: flow cytometry on FaDu cells (internalization assay), 10 µg/mL ADC on ice for 60 min, anti-human IgG PE [left panel (Trimannosyl anti-NTSR1 ADC]
T1 construct: whole, on cells; Endogenous NTSR1 on the human FaDu cell line; also called NTSR1 expressing cells, FaDu
T1 sequence (P30989 whole entry): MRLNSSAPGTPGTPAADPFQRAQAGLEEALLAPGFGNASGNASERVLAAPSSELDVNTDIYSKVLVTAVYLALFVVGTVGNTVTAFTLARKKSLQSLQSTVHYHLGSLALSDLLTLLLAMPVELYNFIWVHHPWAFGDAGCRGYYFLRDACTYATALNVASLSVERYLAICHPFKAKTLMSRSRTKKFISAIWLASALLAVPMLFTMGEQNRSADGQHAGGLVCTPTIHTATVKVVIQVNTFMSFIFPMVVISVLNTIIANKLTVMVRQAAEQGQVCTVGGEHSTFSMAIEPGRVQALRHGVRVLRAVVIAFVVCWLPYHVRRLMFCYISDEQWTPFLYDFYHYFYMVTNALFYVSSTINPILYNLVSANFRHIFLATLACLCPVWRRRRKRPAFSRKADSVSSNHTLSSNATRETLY
Description: FaDu cells were trypsinized, and then harvested and resuspended in FAC buffer. Controls: secondary Ab anti-human IgG PE (1:200) was added to the FaDu cells. The cells were incubated at 4° C. for time intervals of 0, 0.5, 2, 5 and 24 hours, and then washed by 1 mL of FACS buffer. The supernatant was discarded. Testing groups: FaDu cells were pre-incubated with 10 μg/mL ADCs of trimannosyl and anti-NTSR1 antibodies αNTSR1 (AKT2), αNTSR1 (AKT2 Hu/Hu) and αNTSR1 (AKT2 Hu/Hd) in FACS buffer on ice for 60 min, washed three times with FACS buffer, and then incubated at 37° C. for time intervals of 0, 0.5, 2, 5 and 24 hours.

NTSR1 on FaDu cells [3] = target: T1, NTSR1 on FaDu cells; test: flow cytometry on FaDu cells, antibody at 10 ug/ml
Description: (§1) Anti-NTSR1 antibodies were used to detect cells that express NTSR1 on the cell surfaces, for example using FACS. NTSR1 expressing cells, FaDu, were harvested and re-suspended in 5% PBS/FBS buffer. The cells (1×10⁵) were incubated with anti-NTSR1 antibody (1-10 μg/ml) or negative control, at 4° C. for 1 hr, and then stained with goat anti-human IgG FITC conjugate ( 1/1000) at 4° C. for 1 hr. For each assay, two additional controls were prepared; one without primary antibody and the other one with absence of any antibody. All treated samples were analyzed with […]™ (BECTON DICKINSON®) and the results were processed by […]™ software (BECTON DICKINSON®).

NTSR1 on FaDu cells [4] = target: T1, NTSR1 on FaDu cells; test: flow cytometry on FaDu cells, antibody at 1 ug/mL
Description: as §1

[5] = target: NTSR1 linear L2-biotin protein (human) (UniProt P30989); test: ELISA titration, plate coated with NTSR1 linear L2-biotin protein, anti-human IgG-HRP
[6] = target: NTSR1 linear L2-biotin protein (human) (UniProt P30989); test: ELISA on coated NTSR1 linear L2-biotin protein, non-linear regression

NTSR1 protein, sequence (P30989 whole entry): as above

EC50 (read off the curve) [1] [nM]	Kd (NTSR1 protein) [nM]	koff (NTSR1 protein) [s⁻¹]	kon (NTSR1 protein) [M⁻¹ s⁻¹]	binding result (NTSR1 on FaDu cells [2])	% Flow binding (10 ug/ml) (NTSR1 on FaDu cells [3]) [%]	% Flow binding (1 ug/mL) (NTSR1 on FaDu cells [4]) [%]	Binder	other results
					99	73	humanized antibody 7C3 HuHd (antibody, V domains shown, Full-length antibody from the human Fc vectors) VH: QVQLVQSGAEVKKPGASVKVSCKASGYTFTSSWIHWVRQAPGQGLEWMGQIRPNSGNTYYNEKFKVRVTMTRDTSTSTVYMELSSLRSEDTAVYYCARYYYGFDYWGQGTLVTVSS VL: DIQMTQSPSSLSASVGDRVTITCRSSQSIVHSNGNTYLEWYQQKPGKAPKLLIYKVSNRFSGVPSRFSGSGSGTDFTLTISSLQPEDFATYYCFQGSHLPWTFGQGTKVEIK	
					98	64	humanized 7C3 IMGT (7C3 HuHu) (antibody, V domains shown, Full-length antibody with human IgG1 / kappa constant regions (plasmids pTCAEDH 7C3 HUVH IgG1 and pTCAEDL 7C3 HUVL Kappa)) VH: QVQLVQSGAEVKKPGASVKVSCKASGYTFTSSWIHWVRQAPGQGLEWMGQIRPNSGNTYYNEKFKVRVTMTRDTSTSTVYMELSSLRSEDTAVYYCARYYYGFDYWGQGTLVTVSS VL: DIVMTQTPLSLSVTPGQPASISCRSSQSIVHSNGNTYLEWYLQKPGQSPQLLIYKVSNRFSGVPDRFSGSGSGTDFTLKISRVEAEDVGVYYCFQGSHLPWTFGQGTKVEIK	EC50 (read off the curve) [5]: 0.03 nM; Kd [6]: 0.294 nM
					91	31	mouse-human chimera antibody 7C3 MM (antibody, V domains shown, Mouse 7C3 variable domains sub-cloned into the human Fc chimera expression vectors pTCAEDH and pTCAEDL; The humanized plasmids are named IgG1 and Kappa; also called m7C3; mAb 7C3 MM) VH: QVQLQQPGSVLVRPGDSVMLSCKASGYTFTSSWIHWAKQRPGQGPEWIGQIRPNSGNTYYNEKFKVKATLTVDTSSSTAYVDLSSLTSEDSAVYYCARYYYGFDYWGQGTTVTVSS VL: DVLMTQTPLSLPVSLGDQASISCRSSQSIVHSNGNTYLEWYLQKPGQSPKLLIYKVSNRFSGVPDRFSGSGSGTDFTLKISRVEAEDLGVYYCFQGSHLPWTFGGGTKLEIK	EC50 (read off the curve) [5]: 0.07 nM; Kd [6]: 0.676 nM

Continued, binder first:

Binder	EC50 (read off the curve) [1] [nM]	Kd (NTSR1 protein) [nM]	koff (NTSR1 protein) [s⁻¹]	kon (NTSR1 protein) [M⁻¹ s⁻¹]	binding result (NTSR1 on FaDu cells [2])	% Flow binding (10 ug/ml) (NTSR1 on FaDu cells [3]) [%]	% Flow binding (1 ug/mL) (NTSR1 on FaDu cells [4]) [%]	other results
humanized antibody AKT2 HuHd (antibody, V domains shown, Full-length humanized antibody; also called αNTSR1 (AKT2 Hu/Hd)) VH: QVQLVQSGAEVKKPGASVKVSCKASGYAFTSSWIHWVRQAPGQGLEWMGQIRPNSGNTYYNEKFKVRVTMTRDTSTSTVYMELSSLRSEDTAVYYCARYHYGFDYWGQGTLVTVSS VL: DIQMTQSPSSLSASVGDRVTITCRSSQSIVHSNGNTYLEWYQQKPGKAPKLLIYKVSNRFSGVPSRFSGSGSGTDFTLTISSLQPEDFATYYCFQGAHLPWTFGQGTKVEIK	0.06	1.43	0.000657	461000				
αNTSR1 (AKT2 Hu/Hd) 4 seco-DUBA (antibody, V domains shown, seco-DUBA payload conjugated (trimannosyl ADC); site of conjugation not given, Antibody-drug conjugate of the humanized antibody AKT2 HuHd with seco-DUBA; also called trimannosyl anti-NTSR1 ADC of AKT2 HuHd) VH: QVQLVQSGAEVKKPGASVKVSCKASGYAFTSSWIHWVRQAPGQGLEWMGQIRPNSGNTYYNEKFKVRVTMTRDTSTSTVYMELSSLRSEDTAVYYCARYHYGFDYWGQGTLVTVSS VL: DIQMTQSPSSLSASVGDRVTITCRSSQSIVHSNGNTYLEWYQQKPGKAPKLLIYKVSNRFSGVPSRFSGSGSGTDFTLTISSLQPEDFATYYCFQGAHLPWTFGQGTKVEIK					binds			
humanized antibody AKT2 HuHu (antibody, V domains shown, Full-length humanized antibody; also called αNTSR1 (AKT2 Hu/Hu)) VH: QVQLVQSGAEVKKPGASVKVSCKASGYAFTSSWIHWVRQAPGQGLEWMGQIRPNSGNTYYNEKFKVRVTMTRDTSTSTVYMELSSLRSEDTAVYYCARYHYGFDYWGQGTLVTVSS VL: DIVMTQTPLSLSVTPGQPASISCRSSQSIVHSNGNTYLEWYLQKPGQSPQLLIYKVSNRFSGVPDRFSGSGSGTDFTLKISRVEAEDVGVYYCFQGAHLPWTFGQGTKVEIK	0.06	1.03	0.000808	788000				
αNTSR1 (AKT2 Hu/Hu) 4 seco-DUBA (antibody, V domains shown, seco-DUBA payload conjugated (trimannosyl ADC); site of conjugation not given, Antibody-drug conjugate of the humanized antibody AKT2 HuHu with seco-DUBA; also called trimannosyl anti-NTSR1 ADC of AKT2 HuHu) VH: QVQLVQSGAEVKKPGASVKVSCKASGYAFTSSWIHWVRQAPGQGLEWMGQIRPNSGNTYYNEKFKVRVTMTRDTSTSTVYMELSSLRSEDTAVYYCARYHYGFDYWGQGTLVTVSS VL: DIVMTQTPLSLSVTPGQPASISCRSSQSIVHSNGNTYLEWYLQKPGQSPQLLIYKVSNRFSGVPDRFSGSGSGTDFTLKISRVEAEDVGVYYCFQGAHLPWTFGQGTKVEIK					binds			
mouse-human chimera antibody AKT2 (antibody, V domains shown, Mouse variable domains on human constant regions; also called chimera AKT2 mAb; αNTSR1 (AKT2)) VH: QVQLQQPGSVLVRPGASVKLSCKASGYAFTSSWIHWAKQRPGQGLEWIGQIRPNSGNTYYNEKFKVKATLTVDTSSSTAYVDLSSLTSEDSAVYYCARYHYGFDYWGQGTLVTVSS VL: DVLMTQTPLSLPVSLGDQASISCRSSQSIVHSNGNTYLEWYLQKPGQSPKLLIYKVSNRFSGVPDRFSGSGSGTDFTLKISRVEAEDLGVYYCFQGAHLPWTFGGGTKLEIK	0.06	1.61	0.000656	407000				
αNTSR1 (AKT2) 4 seco-DUBA (antibody, V domains shown, seco-DUBA payload conjugated (trimannosyl ADC); site of conjugation not given, Antibody-drug conjugate of the mouse-human chimera antibody AKT2 with seco-DUBA; also called trimannosyl anti-NTSR1 ADC of AKT2) VH: QVQLQQPGSVLVRPGASVKLSCKASGYAFTSSWIHWAKQRPGQGLEWIGQIRPNSGNTYYNEKFKVKATLTVDTSSSTAYVDLSSLTSEDSAVYYCARYHYGFDYWGQGTLVTVSS VL: DVLMTQTPLSLPVSLGDQASISCRSSQSIVHSNGNTYLEWYLQKPGQSPKLLIYKVSNRFSGVPDRFSGSGSGTDFTLKISRVEAEDLGVYYCFQGAHLPWTFGGGTKLEIK					binds			
